Reference: PMC9482650, “Quantitative fragmentomics allow affinity mapping of interactomes” (Nature Communications, 2022)

T1: PDZD7_3, Q9H5P4
T1 sequence (Q9H5P4 857-944, limits assumed, looked up): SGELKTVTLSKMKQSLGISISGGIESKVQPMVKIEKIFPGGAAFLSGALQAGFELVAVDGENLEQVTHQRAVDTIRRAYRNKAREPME

T2: MPDZ_12, O75970
T2 sequence (O75970 1857-1958, limits assumed, looked up): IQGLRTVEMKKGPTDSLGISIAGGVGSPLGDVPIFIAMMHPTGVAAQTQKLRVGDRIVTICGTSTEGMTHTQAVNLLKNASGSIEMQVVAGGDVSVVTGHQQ

T3: APBA2_2, Q99767
T3 sequence (Q99767 654-744, limits assumed, looked up): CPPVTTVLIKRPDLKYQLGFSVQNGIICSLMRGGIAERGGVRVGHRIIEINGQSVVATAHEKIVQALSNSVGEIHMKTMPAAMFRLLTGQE

T4: DLG3_2, Q92796
T4 sequence (Q92796 221-321, limits assumed, looked up): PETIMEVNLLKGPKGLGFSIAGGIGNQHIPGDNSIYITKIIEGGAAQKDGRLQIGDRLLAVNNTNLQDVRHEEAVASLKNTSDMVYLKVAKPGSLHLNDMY

T5: DFNB31_2, Q9P202
T5 sequence (Q9P202 274-371, limits assumed, looked up): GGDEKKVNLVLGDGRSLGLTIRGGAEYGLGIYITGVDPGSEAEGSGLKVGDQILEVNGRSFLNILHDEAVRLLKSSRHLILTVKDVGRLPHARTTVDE

T6: DLG3_3, Q92796
T6 sequence (Q92796 374-475, limits assumed, looked up): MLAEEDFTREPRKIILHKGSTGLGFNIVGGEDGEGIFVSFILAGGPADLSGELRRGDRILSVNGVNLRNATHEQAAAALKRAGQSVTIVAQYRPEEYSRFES

T7: CARD11, Q9BXL7
T7 sequence (Q9BXL7 662-765, limits assumed, looked up): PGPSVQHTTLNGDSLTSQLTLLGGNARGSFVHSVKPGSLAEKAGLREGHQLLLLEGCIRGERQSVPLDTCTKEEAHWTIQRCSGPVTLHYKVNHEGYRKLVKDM

T8: MPP2, Q14168
T8 sequence (Q14168 180-250, limits assumed, looked up): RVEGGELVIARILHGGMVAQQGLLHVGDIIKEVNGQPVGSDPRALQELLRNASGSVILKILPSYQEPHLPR

T9: LNX2_2, Q8N448
T9 sequence (Q8N448 334-432, limits assumed, looked up): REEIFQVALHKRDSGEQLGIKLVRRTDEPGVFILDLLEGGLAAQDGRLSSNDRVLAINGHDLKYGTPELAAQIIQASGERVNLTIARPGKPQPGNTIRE

T10: SHANK1, Q9Y566
T10 sequence (Q9Y566 658-767, limits assumed, looked up): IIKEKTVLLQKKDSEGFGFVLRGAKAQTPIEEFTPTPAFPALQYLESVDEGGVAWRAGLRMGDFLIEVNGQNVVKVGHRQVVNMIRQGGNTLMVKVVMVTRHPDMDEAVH

T11: TJP3_3, O95049
T11 sequence (O95049 375-456, limits assumed, looked up): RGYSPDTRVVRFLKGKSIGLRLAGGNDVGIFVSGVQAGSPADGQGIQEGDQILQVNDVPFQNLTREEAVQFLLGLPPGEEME


Legend:
Test in all cases: holdup assay
Parameters in all cases: key: below the threshold = too weak to quantify, mostly under pKd 3.1 to 4
Conditions in all cases: plain residues with an end cap or a label only (N-terminal biotin on a linker: ado-ado)
PDZD7_3, Q9H5P4 = biological target: T1, PDZD7_3, Q9H5P4
MPDZ_12, O75970 = biological target: T2, MPDZ_12, O75970
APBA2_2, Q99767 = biological target: T3, APBA2_2, Q99767
GRIP2_3, Q9C0E4 = biological target: GRIP2_3, Q9C0E4
IL16_3, Q14005 = biological target: IL16_3, Q14005
DLG3_2, Q92796 = biological target: T4, DLG3_2, Q92796
DFNB31_2, Q9P202 = biological target: T5, DFNB31_2, Q9P202
GRIP2_6, Q9C0E4 = biological target: GRIP2_6, Q9C0E4
DLG3_3, Q92796 = biological target: T6, DLG3_3, Q92796
GRIP2_5, Q9C0E4 = biological target: GRIP2_5, Q9C0E4
TJP1_3, Q07157 = biological target: TJP1_3, Q07157
CARD11, Q9BXL7 = biological target: T7, CARD11, Q9BXL7
MPP2, Q14168 = biological target: T8, MPP2, Q14168
MAGI2_4, Q86UL8 = biological target: MAGI2_4, Q86UL8
FRMPD2_3, Q68DX3 = biological target: FRMPD2_3, Q68DX3
LNX2_2, Q8N448 = biological target: T9, LNX2_2, Q8N448
LDB3, O75112 = biological target: LDB3, O75112
MAGI3_2, Q5TCQ9 = biological target: MAGI3_2, Q5TCQ9
MAGI2_6, Q86UL8 = biological target: MAGI2_6, Q86UL8
GRIP2_4, Q9C0E4 = biological target: GRIP2_4, Q9C0E4
SHANK1, Q9Y566 = biological target: T10, SHANK1, Q9Y566
TJP3_3, O95049 = biological target: T11, TJP3_3, O95049
Inadl_1, Q8NI35 = biological target: Inadl_1, Q8NI35
PTPN3, P26045 = biological target: PTPN3, P26045
CASK, O14936 = biological target: CASK, O14936
LIMK2, P53671 = biological target: LIMK2, P53671
Inadl_8, Q8NI35 = biological target: Inadl_8, Q8NI35
DLG4_1, P78352 = biological target: DLG4_1, P78352
Sequence of DLG4_1, P78352 (P78352 62-152): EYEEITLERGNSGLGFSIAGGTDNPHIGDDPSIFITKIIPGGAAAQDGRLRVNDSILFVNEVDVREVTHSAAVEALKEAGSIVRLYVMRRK

Sequence of GRIP2_5, Q9C0E4 (Q9C0E4 544-642): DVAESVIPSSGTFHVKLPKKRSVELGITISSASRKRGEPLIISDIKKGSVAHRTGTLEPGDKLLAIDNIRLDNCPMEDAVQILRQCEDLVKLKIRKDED
Sequence of Inadl_8, Q8NI35 (Q8NI35 1425-1530): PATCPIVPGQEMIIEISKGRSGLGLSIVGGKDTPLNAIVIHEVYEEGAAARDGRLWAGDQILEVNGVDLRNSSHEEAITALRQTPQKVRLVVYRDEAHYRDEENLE
Sequence of CASK, O14936 (O14936 487-570): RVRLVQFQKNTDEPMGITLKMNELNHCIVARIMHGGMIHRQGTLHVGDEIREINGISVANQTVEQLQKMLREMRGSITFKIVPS
Sequence of Inadl_1, Q8NI35 (Q8NI35 113-229): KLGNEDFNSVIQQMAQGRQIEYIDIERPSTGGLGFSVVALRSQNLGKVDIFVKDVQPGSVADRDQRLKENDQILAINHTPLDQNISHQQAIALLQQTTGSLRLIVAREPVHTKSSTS
Sequence of TJP1_3, Q07157 (Q07157 416-512): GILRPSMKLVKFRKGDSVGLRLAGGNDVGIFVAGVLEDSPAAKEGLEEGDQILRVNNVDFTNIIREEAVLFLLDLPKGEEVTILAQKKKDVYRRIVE
Sequence of GRIP2_6, Q9C0E4 (Q9C0E4 648-740): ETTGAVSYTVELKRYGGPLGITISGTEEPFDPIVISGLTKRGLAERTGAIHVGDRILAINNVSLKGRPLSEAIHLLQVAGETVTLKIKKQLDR
Sequence of MAGI3_2, Q5TCQ9 (Q5TCQ9 398-503): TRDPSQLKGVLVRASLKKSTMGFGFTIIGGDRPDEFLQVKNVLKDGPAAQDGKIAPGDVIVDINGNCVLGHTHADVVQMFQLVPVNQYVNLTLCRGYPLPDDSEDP
Sequence of GRIP2_3, Q9C0E4 (Q9C0E4 238-339): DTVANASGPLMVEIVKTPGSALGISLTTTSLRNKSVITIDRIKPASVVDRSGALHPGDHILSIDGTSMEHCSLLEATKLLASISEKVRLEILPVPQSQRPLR
Sequence of LDB3, O75112 (O75112 1-94): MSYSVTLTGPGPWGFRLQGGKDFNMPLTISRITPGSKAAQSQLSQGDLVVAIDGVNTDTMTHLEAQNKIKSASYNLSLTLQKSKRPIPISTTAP
Sequence of FRMPD2_3, Q68DX3 (Q68DX3 1073-1166): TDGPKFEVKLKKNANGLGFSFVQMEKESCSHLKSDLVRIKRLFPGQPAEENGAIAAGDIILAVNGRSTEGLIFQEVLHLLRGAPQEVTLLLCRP
Sequence of MAGI2_6, Q86UL8 (Q86UL8 1141-1229): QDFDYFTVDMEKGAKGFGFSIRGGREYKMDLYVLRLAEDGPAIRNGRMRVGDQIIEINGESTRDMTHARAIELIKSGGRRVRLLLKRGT
Sequence of GRIP2_4, Q9C0E4 (Q9C0E4 446-548): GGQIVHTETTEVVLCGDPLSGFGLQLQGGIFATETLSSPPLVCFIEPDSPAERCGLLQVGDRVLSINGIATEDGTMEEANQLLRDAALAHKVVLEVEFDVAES
Sequence of IL16_3, Q14005 (Q14005 1107-1207): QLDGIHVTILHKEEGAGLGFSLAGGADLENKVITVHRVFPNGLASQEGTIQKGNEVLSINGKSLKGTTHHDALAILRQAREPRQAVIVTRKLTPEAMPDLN
Sequence of PTPN3, P26045 (P26045 505-587): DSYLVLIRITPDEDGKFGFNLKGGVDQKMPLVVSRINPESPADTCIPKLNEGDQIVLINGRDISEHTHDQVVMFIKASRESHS
Sequence of LIMK2, P53671 (P53671 143-248): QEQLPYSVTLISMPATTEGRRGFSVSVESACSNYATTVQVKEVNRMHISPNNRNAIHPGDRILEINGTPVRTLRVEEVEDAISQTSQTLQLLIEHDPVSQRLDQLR
Sequence of MAGI2_4, Q86UL8 (Q86UL8 772-865): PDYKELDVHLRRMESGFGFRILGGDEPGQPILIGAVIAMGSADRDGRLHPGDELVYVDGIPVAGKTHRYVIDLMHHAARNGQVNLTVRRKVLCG

Binder	pKd (PDZD7_3, Q9H5P4)	pKd (MPDZ_12, O75970)	pKd (APBA2_2, Q99767)	pKd (GRIP2_3, Q9C0E4)	pKd (IL16_3, Q14005)	pKd (DLG3_2, Q92796)	pKd (DFNB31_2, Q9P202)	pKd (GRIP2_6, Q9C0E4)	pKd (DLG3_3, Q92796)	pKd (GRIP2_5, Q9C0E4)	pKd (TJP1_3, Q07157)	pKd (CARD11, Q9BXL7)	pKd (MPP2, Q14168)	pKd (MAGI2_4, Q86UL8)	pKd (FRMPD2_3, Q68DX3)	pKd (LNX2_2, Q8N448)	pKd (LDB3, O75112)	pKd (MAGI3_2, Q5TCQ9)	pKd (MAGI2_6, Q86UL8)	pKd (GRIP2_4, Q9C0E4)	also measured
VDSTVKVWTC [TRAF7, Q6Q0C0]	below the threshold	3.52	below the threshold	below the threshold	below the threshold	4.18	below the threshold	4.94	below the threshold	below the threshold	below the threshold	below the threshold	below the threshold	below the threshold	3.71	5.42	below the threshold	below the threshold	below the threshold	below the threshold	pKd (SHANK1, Q9Y566): below the threshold; pKd (TJP3_3, O95049): below the threshold; pKd (Inadl_1, Q8NI35): 3.67; pKd (PTPN3, P26045): 4.13; pKd (CASK, O14936): 3.75; pKd (LIMK2, P53671): below the threshold; pKd (Inadl_8, Q8NI35): below the threshold; pKd (DLG4_1, P78352): below the threshold
VNKSKLLTDV [KCNA1, Q09470]	4.36	below the threshold	below the threshold	below the threshold	below the threshold	4.7	below the threshold	below the threshold	below the threshold	below the threshold	below the threshold	below the threshold	below the threshold	3.79	below the threshold	below the threshold	below the threshold	4.16	3.88	below the threshold	pKd (SHANK1, Q9Y566): below the threshold; pKd (TJP3_3, O95049): below the threshold; pKd (Inadl_1, Q8NI35): below the threshold; pKd (PTPN3, P26045): 3.65; pKd (CASK, O14936): below the threshold; pKd (LIMK2, P53671): below the threshold; pKd (Inadl_8, Q8NI35): 3.91; pKd (DLG4_1, P78352): 4.08
TPPAAKKSRI [BAZ1A, Q9NRL2]	4.52	below the threshold	below the threshold	below the threshold	below the threshold	below the threshold	below the threshold	below the threshold	below the threshold	below the threshold	below the threshold	below the threshold	below the threshold	3.71	below the threshold	below the threshold	below the threshold	below the threshold	below the threshold	below the threshold	pKd (SHANK1, Q9Y566): 3.53; pKd (TJP3_3, O95049): below the threshold; pKd (Inadl_1, Q8NI35): below the threshold; pKd (PTPN3, P26045): 3.93; pKd (CASK, O14936): below the threshold; pKd (LIMK2, P53671): below the threshold; pKd (Inadl_8, Q8NI35): 4.35; pKd (DLG4_1, P78352): below the threshold
LSEFKAMDSI [CTNNA1, P35221]	below the threshold	below the threshold	below the threshold	below the threshold	below the threshold	3.56	below the threshold	below the threshold	below the threshold	below the threshold	below the threshold	below the threshold	below the threshold	below the threshold	below the threshold	below the threshold	below the threshold	below the threshold	below the threshold	below the threshold	pKd (SHANK1, Q9Y566): below the threshold; pKd (TJP3_3, O95049): below the threshold; pKd (Inadl_1, Q8NI35): below the threshold; pKd (PTPN3, P26045): 3.97; pKd (CASK, O14936): below the threshold; pKd (LIMK2, P53671): below the threshold; pKd (Inadl_8, Q8NI35): below the threshold; pKd (DLG4_1, P78352): below the threshold
